According to doi:10.1101/2024.04.27.591446 (bioRxiv, 2024):

Key:
[1] = molecular target: SARS-CoV-2 EG5.1 S ectodomain with 6P and furin mutations, trimer (SARS-CoV-2 Omicron EG.5.1, stabilised); test: cryo-EM structure
[2] = molecular target: SARS-CoV-2 Spike Wuhan-Hu-1 (SARS-CoV-2 Wuhan-Hu-1, UniProt P0DTC2); test: ELISA

B1: 1301B7 Fab (Fab, V domains shown)
VH: EVQLVESGAEVKNPGSSVKVSCKASEGTFGSYPIIWVRQAPGQGLEWVGGIIPILGTVIYAQKFQGRVTITGDTYAGSAHMELSGLRSEDTAVFYCARGSYDYGDRLLNYTYYAMDVWGPGTTVTVSS
VL: QPGLTQPPSVSGAPGQRVTISCTGSRSNIGAVYAVHWYQHVPGAAPKLLIYENNNRPSGIPDRFSGSKSGTSASLVITGLQAEDEADYLCQSYDRSVGVVFGGGTRLTVL
- stoichiometry N [1]: 1 Fab per Spike trimer

B2: 1301B7 recombinant human monoclonal antibody (hmAb), IgG1 (antibody, V domains shown)
VH: EVQLVESGAEVKNPGSSVKVSCKASEGTFGSYPIIWVRQAPGQGLEWVGGIIPILGTVIYAQKFQGRVTITGDTYAGSAHMELSGLRSEDTAVFYCARGSYDYGDRLLNYTYYAMDVWGPGTTVTVSS
VL: QPGLTQPPSVSGAPGQRVTISCTGSRSNIGAVYAVHWYQHVPGAAPKLLIYENNNRPSGIPDRFSGSKSGTSASLVITGLQAEDEADYLCQSYDRSVGVVFGGGTRLTVL
- binding result [2]: binds
